From article PMC6013450, “A convenient protocol for generating giant unilamellar vesicles containing SNARE proteins using electroformation” (Scientific Reports, 2018) come the findings set out here.

The target in the assay is T1, syntaxin-1A (183–288) (Rattus norvegicus, UniProt P32851 183-288).
T1 construct: syntaxin-1A, Rattus norvegicus, residues 183-288, contains the transmembrane region; source: E. coli BL21 (DE3), purified (Ni-NTA, ion exchange MonoQ, buffer with 1% CHAPS)
The assay can be described thus: ion exchange chromatography of the assembled complex; monomers mixed overnight at 4 °C; complex purified on a MonoQ column in a buffer containing CHAPS. To be noted: both partners purified.

T1 sequence (P32851 183-288): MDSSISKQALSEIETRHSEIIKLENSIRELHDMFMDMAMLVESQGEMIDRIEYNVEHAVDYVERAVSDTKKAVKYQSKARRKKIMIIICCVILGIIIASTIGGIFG

B1: synaptobrevin-2 fragment (49–96) (domain or fragment, Rattus norvegicus, UniProt P63045 49-96, looked up)
chain: NVDKVLERDQKLSELDDRADALQAGASQFETSAAKLKRKYWWKNLKMM
notes: synaptobrevin-2, Rattus norvegicus, residues 49-96; also called synaptobrevin fragment 49–96; source: E. coli BL21 (DE3), purified (Ni-NTA, ion exchange MonoS)
With B1, the binding result is “binds”.
